Results from publication PMC10623103, “A case of hyperlysinemia identified by urine newborn screening” (JIMD Reports, 2023).

Molecular target: the molecule itself
Assay: SEC; Superdex200 Increase on an AKTA FPLC after IMAC; uncut His-SUMOstar-LOR; elution compared with the expected tetrameric size and the aggregation peak

B1: 2-aminoadipic semialdehyde synthase (AASS) lysine 2-oxoglutarate reductase (LOR) domain, p.T371I variant, His-SUMOstar-LOR [residues 21-470] (domain or fragment, human, UniProt Q9UDR5 21-470, looked up)
chain: HHKAVLAVRREDVNAWERRAPLAPKHIKGITNLGYKVLIQPSNRRAIHDKDYVKAGGILQEDISEACLILGVKRPPEEKLMSRKTYAFFSHTIKAQEANMGLLDEILKQEIRLIDYEKMVDHRGVRVVAFGQWAGVAGMINILHGMGLRLLALGHHTPFMHIGMAHNYRNSSQAVQAVRDAGYEISLGLMPKSIGPLTFVFTGTGNVSKGAQAIFNELPCEYVEPHELKEVSQTGDLRKVYGTVLSRHHHLVRKTDAVYDPAEYDKHPERYISRFNTDIAPYTTCLINGIYWEQNTPRLLTRQDAQSLLAPGKFSPAGVEGCPALPHKLVAICDISADTGGSIEFMTECTIIEHPFCMYDADQHIIHDSVEGSGILMCSIDNLPAQLPIEATECFGDMLYPYVEEMILSDATQPLESQNFSPVVRDAVITSNGTLPDKYKYIQTLRESRE
notes: 2-aminoadipic semialdehyde synthase (AASS), LOR domain, residues 21-470, patient variant c.1112C>T (p.T371I); Purified as uncut SUMOstar-LOR; calculated MW of the His-SUMOstar-LOR monomer is 62.4 kD; PDB 8E8U is the wild-type LOR structure (cited); also called I371 variant; LOR variant; source: E. coli LOBSTR cells, purified (IMAC, size-exclusion chromatography on Superdex200 Increase); not …
B1: binds.
